{"source": "paper doi:10.1101/830265", "key": {"[1]": {"biological_target": "α-gliadin (Triticum aestivum)", "experiment": "SPR"}, "[2]": {"biological_target": "γ-gliadin (Triticum aestivum) (UniProt P08453)", "sequence (P08453 20-327)": "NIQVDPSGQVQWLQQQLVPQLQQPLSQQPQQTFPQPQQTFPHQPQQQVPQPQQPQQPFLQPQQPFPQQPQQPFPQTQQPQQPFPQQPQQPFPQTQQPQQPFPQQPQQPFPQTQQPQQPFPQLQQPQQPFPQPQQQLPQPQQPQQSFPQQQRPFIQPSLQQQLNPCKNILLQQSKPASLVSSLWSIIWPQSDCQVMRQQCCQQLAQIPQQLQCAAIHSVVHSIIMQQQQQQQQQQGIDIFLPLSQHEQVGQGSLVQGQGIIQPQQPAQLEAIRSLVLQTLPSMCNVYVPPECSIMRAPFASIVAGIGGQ", "experiment": "SPR"}, "[3]": {"biological_target": "total gliadin fraction (Triticum aestivum)", "experiment": "turbidimetry"}, "[4]": {"biological_target": "total gliadin fraction (Triticum aestivum)", "experiment": "turbidimetry", "remark": "listed apart in the source"}, "[5]": {"biological_target": "total gliadin fraction (Triticum aestivum)", "experiment": "turbidimetry", "remark": "listed apart in the source"}}, "note": "Like-named read-outs stand apart in the source and are kept apart here.", "data": [{"binder": "puroindoline A (natural protein) DVAGGGGAQQCPVETKLNSCRNYLLDRCSTMKDFPVTWRWWKWWKGGCQELLGECCSRLGQMPPQCRCNIIQGSIQGDLGGIFGFQRDRASKVIQEAKNLPPRCNQGPPCNIPGTIGYYW", "values": [{"measurement": "Kd", "setting": "[1]", "value": 4450, "unit": "nM"}, {"measurement": "response at equilibrium at 2.5 µM PINA", "setting": "[1]", "value": 160, "unit": "RU"}, {"measurement": "Kd", "setting": "[2]", "value": 630, "unit": "nM"}, {"measurement": "response at equilibrium at 2.5 µM PINA", "setting": "[2]", "value": 34, "unit": "RU"}, {"measurement": "Kd", "setting": "[3]", "value": 400, "unit": "nM"}, {"measurement": "Kd", "setting": "[4]", "value": 1000, "unit": "nM"}, {"measurement": "Kd", "setting": "[5]", "value": 600, "unit": "nM"}]}]}
